# According to publication PMC3946054 (Structure (London, England : 1993), 2013):
# Read-outs that look alike come from different tables or passages of the source.
# T1: SCaMC-1 transmembrane domain (TMD), residues 185-477, incorporated in POPC/POPG/cardiolipin liposomes (human, UniProt Q6NUK1 185-477)
# T1 sequence (looked up): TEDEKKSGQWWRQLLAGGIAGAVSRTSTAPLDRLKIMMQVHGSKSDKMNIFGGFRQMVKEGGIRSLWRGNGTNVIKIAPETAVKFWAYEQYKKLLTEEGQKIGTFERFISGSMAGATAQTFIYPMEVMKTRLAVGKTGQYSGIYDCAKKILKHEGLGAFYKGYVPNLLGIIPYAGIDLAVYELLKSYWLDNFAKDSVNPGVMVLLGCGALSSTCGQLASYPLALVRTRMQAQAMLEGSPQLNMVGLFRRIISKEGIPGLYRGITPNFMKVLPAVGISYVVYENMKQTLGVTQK
# B1: Human SCaMC-1 N-terminal domain (NTD), residues 1-193 (domain or fragment, UniProt Q6NUK1 1-193, looked up)
# chain: MLRWLRDFVLPTAACQDAEQPTRYETLFQALDRNGDGVVDIGELQEGLRNLGIPLGQDAEEKIFTTGDVNKDGKLDFEEFMKYLKDHEKKMKLAFKSLDKNNDGKIEASEIVQSLQTLGLTISEQQAELILQSIDVDGTMTVDWNEWRDYFLFNPVTDIEEIIRFWKHSTGIDIGDSLTIPDEFTEDEKKSGQ
# Assays:
# [1] = molecular target: T1, SCaMC-1 transmembrane domain (TMD), …; experiment: SPR
# [2] = molecular target: T1, SCaMC-1 transmembrane domain (TMD), …; experiment: SPR; remark: listed apart in the source
binder,measurement,setting,value
B1,Kd,[1],250 µM
same,Kd,[2],5600 µM
